# Results as given in the supplement of paper PMC10567573.
# B1: MYBL2 (parent)
# chain: FPNRTDQQCQYRWLRVLNPDLVKG
# B2: STX5 (parent)
# chain: ESTIVELGSIFQQLAHMVKEQEET
# B3: FAM116A (parent)
# chain: TVHEVDIFRCFCPVFLHSQMLWEL
# Variants of: B1
# Assay: protein stability index of a GFP-peptide fusion (GPS, HEK-293T) (PSI 1-6); higher = more stable
# Settings: c terminus: a fixed tail appended
# 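Note: lentivirally expressed fusions sorted by FACS into six bins by GFP to DsRed ratio, PSI derived from sequencing read proportions per bin multiplied by bin number.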
row,Variant,protein stability index
1,F1H,2.44
2,F1N,2.47
3,F1T,2.75
4,F1L,2.08
5,F1M,2.37
6,F1E,2.56
7,F1G,3.23
8,F1V,2.31
9,F1A,2.54
10,F1S,2.51
11,F1W,2
12,F1K,2.14
13,F1C,2.24
14,F1I,2.6
15,F1Y,1.95
16,F1Q,2.76
17,F1P,3
18,F1D,3.24
19,F1R,2.79
20,P2I,1.13
21,P2K,2.3
22,P2C,1.84
23,P2F,1.69
24,P2D,2.06
25,P2H,1.86
26,P2A,2.17
27,P2G,1.88
28,P2E,2.67

# Variants of: B2
# Assay: as above
# Settings: c terminus: a fixed tail appended
row,Variant,protein stability index
1,Q21T,2.88
2,Q21A,1.67
3,Q21E,3.05
4,Q21C,1.91
5,Q21K,2.6
6,Q21W,3.33
7,Q21D,2.4
8,Q21V,1.73
9,Q21S,1.81
10,Q21I,1.64
11,Q21N,2.12
12,Q21F,1.98
13,Q21G,2.75
14,Q21P,3.29
15,Q21M,1.87
16,Q21R,1.36
17,Q21H,1.97
18,Q21Y,2.23
19,Q21L,2.67
20,E22A,2.75
21,E22W,1.53
22,E22Y,1.39
23,E22G,1.06

row,Variant,protein stability index
1,E22I,2.7
2,E22D,1.97
3,E22H,1.3
4,E22T,1.39
5,E22Q,2.65
6,E22F,2.88
7,E22K,2
8,E22L,5.42
9,E22M,2.89
10,E22P,1.69
11,E22C,2.4
12,E22S,2.44
13,E22N,1.98
14,E23I,2.38
15,E23N,1.47
16,E23S,1.23
17,E23P,2.06
18,E23Y,1.2
19,E23T,1.32
20,E23Q,2.5
21,E23A,1.88
22,E23K,1.48
23,E23R,1.77

row,Variant,protein stability index
1,E23D,2.19
2,E23H,2.11
3,E23V,3.06
4,E23L,1.42
5,E23G,1.28
6,E23C,1.83
7,T24W,2.89
8,T24A,2.17
9,T24S,2
10,T24K,1.83
11,T24V,2.01
12,T24G,1.97
13,T24F,1.6
14,T24H,2.42
15,T24N,2.88
16,T24E,2.12
17,T24I,1.78
18,T24Y,2.29
19,T24L,1.5
20,T24R,2.12
21,T24Q,1.59
22,T24D,1.89
23,T24C,1.62

row,Variant,protein stability index
1,T24P,2.77
2,K19D,4.35
3,K19P,4.08
4,K19M,1.9
5,K19C,1.41
6,K19H,2.44
7,K19E,2.92
8,K19F,2.31
9,K19S,1.97
10,K19Q,2.32
11,K19Y,1.17
12,K19A,1.81
13,K19N,2.95
14,K19R,1.85
15,K19I,1.59
16,K19G,2.76
17,K19T,2.41
18,V18S,4.14
19,V18W,2.22
20,V18R,3.65
21,V18T,3.45
22,V18N,4.38
23,V18Y,2.44

row,Variant,protein stability index
1,V18M,2.79
2,V18P,4.45
3,V18Q,2.37
4,E20K,2.86
5,E20P,1.61
6,E20S,2.08
7,E20Y,3.75
8,E20T,1.18
9,E20R,1.76
10,E20M,4.03
11,E20A,2.19
12,E20D,2.78
13,E20W,1.86
14,E20G,2.02
15,E20F,1.98
16,E20C,2.54
17,E20N,1.53
18,E20H,1.62
19,E20Q,1.12

# Variants of: B3
# Assay: as above
# Settings: c terminus: a fixed tail appended
row,Variant,protein stability index
1,V14L,4.01
2,V14G,3.26
3,V14K,2.41
4,V14R,2.5
5,V14Y,1.89
6,V14F,2.97
7,V14A,2.13
8,V14Q,3.31
9,L24Q,1.47
10,L24G,3.33
11,L24S,2.18
12,L24C,4.01
13,L24W,1.83
14,L24P,1.69
15,L24Y,3.09
16,M20N,3.79
17,M20I,3.16
18,M20Q,2.97
19,M20K,1.68
20,M20V,2.62
21,M20P,1.4
22,M20L,3.06
23,M20F,2.05
24,M20Y,3.21
25,R9S,3.12

row,Variant,protein stability index
1,R9D,2.96
2,R9E,4.78
3,R9T,1.99
4,R9F,2.13
5,R9H,2.19
6,R9Q,3.69
7,R9P,1.77
8,R9A,2.82
9,L16E,1.69
10,L16C,3.78
11,L16N,3.13
12,L16R,3.17
13,L16P,2.89
14,L16G,2.97
15,Q19I,1.82
16,Q19C,2.22
17,Q19A,3.23
18,Q19T,1.66
19,Q19P,4.4
20,Q19S,2.74
21,Q19W,2.73
22,E4Q,1.79
23,E4Y,3.35
24,E4P,3.77
25,E4C,1.53

row,Variant,protein stability index
1,E4S,4.26
2,E4K,3.86
3,E4T,3.43
4,E4I,3.19
5,E4H,3.03
6,E4R,3.14
7,E4D,1.46
8,S18G,2.83
9,S18F,2.77
10,S18Y,4.23
11,S18N,2.99
12,S18T,3.1
13,S18E,1.56
14,S18L,2.89
15,S18D,2.15
16,S18W,2.85
17,S18Q,2.17
18,W22F,2.22
19,W22K,1.13
20,W22G,3.08
21,W22H,1.52
22,W22M,3.69
23,W22R,3.65
24,W22T,2.11
25,H17S,3.21

row,Variant,protein stability index
1,H17R,2.65
2,H17M,3.23
3,H17P,2.86
4,V5R,4.06
5,V5N,1.84
6,V5W,2.47
7,V5T,3.3
8,V5Y,2.28
9,V5S,2.17
10,V5K,1.93
11,T1M,1.98
12,T1P,1.67
13,T1D,4.17
14,T1Q,3.46
15,T1K,2.66
16,T1R,3.09
17,T1H,3.11
18,T1L,1.68
19,T1I,1.4
20,T1G,1.75
21,T1Y,2.93
22,V2Q,2.08
23,V2W,2.7
24,V2Y,3.92
25,V2M,2.05

row,Variant,protein stability index
1,V2R,3.97
2,V2A,1.77
3,V2N,1.76
4,V2K,1.73
5,V2E,1.04
6,V2C,2.57
7,H3T,1.85
8,H3E,1.82
9,H3F,2.37
10,H3K,2.14
11,H3W,3.13
12,H3Y,3.37
13,H3P,3.24
14,H3L,2.85
15,H3D,2.26
16,H3G,3.96
17,H3N,3.08
18,D6W,3.69
19,D6K,2.61
20,D6P,1.7
21,D6Y,2.19
22,D6A,4.47
23,D6H,2.23
24,D6N,3.02
25,D6Q,2.07

row,Variant,protein stability index
1,D6I,2.2
2,C12K,1.79
3,C12M,2.97
4,C12E,1.52
5,C12I,2.54
6,C12R,3.5
7,C12F,2.77
8,P13K,2.83
9,P13I,3.13
10,P13Y,1.72
11,P13N,1.5
12,P13L,1
13,P13A,2.36
14,L21R,1.77
15,L21T,3.12
16,L21C,3.04
17,L21I,3.87
18,L21Q,3.05
19,E23R,1.77
20,E23S,2.37
21,E23L,3.65
22,E23H,3.28
23,E23W,2.4
24,E23N,3.34
25,E23Y,2.38

row,Variant,protein stability index
1,E23K,3.53
2,E23I,3.36
3,I7Y,3.48
4,I7C,2.28
5,I7M,1.22
6,I7N,1.09
7,I7T,2.49
8,I7G,3.26
9,I7R,1.94
10,C10K,2.63
11,C10P,4.46
12,C10R,2
13,C10T,1.93
14,C10H,4.15
15,C10V,2.69
16,C10S,2.89
17,C10M,3.4
18,F8H,1
19,F8Y,2.89
20,F8N,2.05
21,F8G,1.07
22,F8C,2.96
23,F8K,2.31
24,F8M,3.18
25,F8L,3.07

row,Variant,protein stability index
1,F8P,2.36
2,F8W,3.88
3,F8R,1.45
4,F8V,2.4
5,F8A,2.53
6,F11C,2.65
7,F11G,2.22
8,F11H,2.82
9,F11K,2.82
10,F11R,1.38
11,F11N,2.04
12,F11Q,1.64
13,F15R,4.41
14,F15V,1.94
15,F15D,1.44
16,F15C,1.76
17,F15I,3.86
18,F15Y,3.31
19,F15H,2.83
20,F15K,2.7
